Residue numbers refer to the chain shown, from its start.

Test [1] has as its target T1, human ULBP2 (26-216) S142A on yeast (human, UniProt Q9BZM5 26-216).
T1 construct: fused to V5 tag and Aga2
T1 chain: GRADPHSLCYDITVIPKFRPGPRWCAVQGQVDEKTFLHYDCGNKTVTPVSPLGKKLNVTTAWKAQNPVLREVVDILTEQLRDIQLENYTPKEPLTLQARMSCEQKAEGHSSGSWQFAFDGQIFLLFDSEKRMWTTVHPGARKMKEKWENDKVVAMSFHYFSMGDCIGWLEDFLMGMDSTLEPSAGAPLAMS
Nature of the test: yeast display FACS, 1 nM.

Test [2] concerns the target T2, human ULBP2 (26-216) T38A on yeast (human, UniProt Q9BZM5 26-216).
T2 construct: fused to V5 tag and Aga2
T2 chain: T1 chain with T13A, A117S
Nature of the test: yeast display FACS, 1 nM.

Test [3] addresses T3, human ULBP2 (26-216) K42A on yeast (human, UniProt Q9BZM5 26-216).
T3 construct: fused to V5 tag and Aga2
T3 chain: T1 chain with K17A, A117S
Description: yeast display FACS, 1 nM.

The target of test [4] is T4, human ULBP2 (26-216) R44A on yeast (human, UniProt Q9BZM5 26-216).
T4 construct: fused to V5 tag and Aga2
T4 chain: T1 chain with R19A, A117S
Nature of the test: yeast display FACS, 1 nM.
Description: Cells were washed and analyzed using BD FACSymphony A3 flow cytometer (BD Biosciences).

The target in test [5] is T5, Human ULBP2 (recombinant) (human, UniProt Q9BZM5 26-217).
T5 construct: bought (R&D Systems) as ULBP2-Fc or ULBP2-His; also called recombinant ULBP2
T5 sequence: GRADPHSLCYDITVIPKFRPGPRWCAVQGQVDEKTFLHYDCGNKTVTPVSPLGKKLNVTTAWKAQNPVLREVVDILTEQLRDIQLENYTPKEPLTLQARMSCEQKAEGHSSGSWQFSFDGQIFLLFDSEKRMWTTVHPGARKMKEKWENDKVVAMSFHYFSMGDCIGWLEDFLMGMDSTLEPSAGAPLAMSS
Nature of the test: BLI, antibody on AHC sensor. In general terms: BLI is a label-free optical method that tracks binding on a fibre tip over time.
Description: (§1) Bio-layer interferometry (BLI) was performed on the Octet RED384 (Sartorius). […] Subsequently, dissociation was measured over 600 seconds. The kinetic and affinity constants are determined by fitting the data to a 1:1 binding model using the Octet analysis software.

Another test has as its target T6, Human ULBP5-His (human, UniProt Q6H3X3 26-223, limits assumed).
T6 construct: bought (R&D Systems), His tag; also called RAET1G
T6 sequence: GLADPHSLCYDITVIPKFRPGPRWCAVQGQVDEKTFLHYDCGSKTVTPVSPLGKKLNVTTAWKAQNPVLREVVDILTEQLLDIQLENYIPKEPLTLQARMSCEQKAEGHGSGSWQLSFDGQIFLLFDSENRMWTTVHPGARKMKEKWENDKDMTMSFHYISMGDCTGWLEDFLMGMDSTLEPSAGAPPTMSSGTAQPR
Description: BLI, antibody on AHC sensor.

The target in another test is T7, Human ULBP6-His (human, UniProt Q5VY80 26-218, limits assumed).
T7 construct: bought (R&D Systems), His tag; also called RAET1L
T7 sequence: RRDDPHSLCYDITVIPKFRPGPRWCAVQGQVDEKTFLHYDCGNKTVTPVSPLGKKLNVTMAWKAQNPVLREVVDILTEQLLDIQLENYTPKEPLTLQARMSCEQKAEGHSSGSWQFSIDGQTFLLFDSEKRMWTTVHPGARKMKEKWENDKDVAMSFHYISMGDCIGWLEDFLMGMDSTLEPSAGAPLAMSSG
Nature of the test: BLI, antibody on AHC sensor.

The target in test [6] is T5, Human ULBP2 (recombinant). Description: SPR, biotinylated antigen on SA chip.
Description: Surface plasmon resonance (SPR) was performed on the Biacore 8K+ (Cytiva). Biotin labelled proteins were captured using the Sensor chip SA (Cytiva). […] The association contact and dissociation time are 60-120 seconds and 120-420 seconds respectively. The chip surface is regenerated by injecting 10 mM glycine, pH 1.5, at a flow rate of 30 μL/min for 60 seconds. The kinetic and affinity constants are determined by fitting the data to a 1:1 binding model using the Biacore insight evaluation software.
In test [7] the target is T8, human ULBP2 (26-216) displayed on yeast (human, UniProt Q9BZM5 26-216).
T8 construct: also called Wild type; wild-type ULBP2
T8 sequence: T1 chain with A117S
Nature of the test: flow cytometry on yeast displaying ULBP2; unstained control 385.

Test [8] has as its target T9, human ULBP2 (26-216) R106L displayed on yeast (human, UniProt Q9BZM5 26-216).
T9 construct: also called Human ULBP2 R106L; ULBP2 R106L
T9 chain: T1 chain with R81L, A117S
The description is as above.

In test [9] the target is T9, human ULBP2 (26-216) R106L displayed on …. Description: flow cytometry on yeast displaying ULBP2. A general note: A flow cytometer gives signals particle by particle.

Description for Human ULBP5-His: as §1
Description for Human ULBP6-His: as §1

B1: E12 (antibody, V domains shown)
VH: QVQLVQSGAEVKKPGASVKVSCKASGYTFTNYDINWVRQAPGQGLEWMGWIYPGDGSTYYNEKFKGRVTMTRDTSTSTVYMELSSLRSEDTAVYYCARSGDYGLYYFDYWGQGTLVTVSS
VL: EIVLTQSPATLSLSPGERATLSCRASQSIGTSIHWYQQKPGQAPRLLIYFASESISGIPARFSGSGSGTDFTLTISSLEPEDFAVYYCQQSNSWPLYTFGGGTKVEIK
notes: humanized; also called humanized ULBP2 antibody E12; anti-ULBP2/5/6 antibody
With B1, the “Gate 1 Freq. of Total” value in [1] was found to be 66.9%; in [2], 8.62%; in test [3], 50.7%; in test [4] it was 60.6%. The “Gate 2 Freq. of Total” value in test [1] was 0.42%; in test [2] it was 38.5%; in [3], 22%; in test [4], 5.16%. Further, the “Gate 3 Freq. of Total” value in test [1] stood at 0.018%; in test [2], 3.95%; in [3] it was 0.62%; in test [4] it was 0.068%. For the same molecule, the Kd was 198 pM in test [5], 345 pM with Human ULBP5-His, 456 pM in the test with Human ULBP6-His and 220 pM in test [6]. Also, in test [6], the off-rate constant (koff) was determined as 0.000211 s⁻¹. For the same molecule, the kon in [6] came out at 957000 M⁻¹ s⁻¹. In addition, the MFI in test [7] amounted to 5180; in test [8], 9160.

B2: A06 (antibody, V domains shown)
VH: EVQLVQSGAEVKKPGESLKISCKGSGYAFSTSWMNWVRQMPGKGLEWMGRIYPGDGDTNYNGNFKGQVTISADKSISTAYLQWSSLKASDTAMYYCARGGELRLEAMDSWGQGTLVTVSS
VL: EIVMTQSPATLSLSPGERITLSCSASSSIHSNYLHWYQQKPGQAPRLLIYRTSNLASGIPARFSGSGSGTDFTLTISSLQPEDFAVYYCQQGFSIPFTFGQGTKLEIK
notes: humanized; also called humanized ULBP2 antibody A06; anti-ULBP2 antibody
As for B2, the Kd in [5] is 532 pM; in [6], 162 pM. The binding result with Human ULBP5-His is listed as “no binding (tested: 250 nM (highest concentration tested))”; with Human ULBP6-His, “no binding (tested: 250 nM (highest concentration tested))”; in test [9] it was “no binding”. For the same molecule, the dissociation rate constant (koff) in test [6] amounted to 0.000214 s⁻¹. Further, in test [6], the kon turned out to be 1.32e+06 M⁻¹ s⁻¹. In addition, the MFI in test [7] is 8030; in test [8] it was 828.

Broadly, the Kd is the constant that tells how readily two partners part at equilibrium. As usually defined, the koff is the first-order rate constant of dissociation. One may read the kon as a measure of how fast the partners come together.

The record behind these values is patent publication US20250197496A1 (EVOLVELMMUNE THERAPEUTICS, published 2025).
